The source of these data is US11994512B2, “Single-cell genomic methods to generate ex vivo cell systems that recapitulate in vivo biology with improved fidelity” (Massachusetts Institute of Technology, priority 2018, dated 2024).

In the assay the test system is intracellular proteome of ENR+CD and ENR organoids. Kind of assay: LC-MS/MS TMT proteomics of ENR+CD versus ENR organoids. It is filed as cell-based, C57BL/6 mice. The following applies: for Average logFC / M1-1 Log2 Median Normalized / M1-2 Log2 Median Normalized / M2-1 Log2 Median Normalized / M2-2 Log2 Median Normalized: protein abundance, ENR+CD versus ENR organoids; for Average logFC: aggregate of the four sample pairs; for M1-1 Log2 Median Normalized: replicate M1-1; for M1-1 Log2 Median Normalized / M1-2 Log2 Median Normalized / M2-1 Log2 Median Normalized / M2-2 Log2 Median Normalized: log2 ratio; for M1-2 Log2 Median Normalized: replicate M1-2; for M2-1 Log2 Median Normalized: replicate M2-1; for M2-2 Log2 Median Normalized: replicate M2-2; for change: up = enriched in ENR+CD, down = enriched in ENR, FDR<0.05 and log fold change cut-off.

B1: P48281 (protein, UniProt P48281 1-422, looked up)
chain: MEAMAASTSLPDPGDFDRNVPRICGVCGDRATGFHFNAMTCEGCKGFFRRSMKRKALFTCPFNGDCRITKDNRRHCQACRLKRCVDIGMMKEFILTDEEVQRKREMIMKRKEEEALKDSLRPKLSEEQQHIIAILLDAHHKTYDPTYADFRDFRPPIRADVSTGSYSPRPTLSFSGDSSSNSDLYTPSLDMMEPASFSTMDLNEEGSDDPSVTLDLSPLSMLPHLADLVSYSIQKVIGFAKMIPGFRDLTSDDQIVLLKSSAIEVIMLRSNQSFTLDDMSWDCGSQDYKYDITDVSRAGHTLELIEPLIKFQVGLKKLNLHEEEHVLLMAICIVSPDRPGVQDAKLVEAIQDRLSNTLQTYIRCRHPPPGSHQLYAKMIQKLADLRSLNEEHSKQYRSLSFQPENSMKLTPLVLEVFGNEIS
modifications: full-length
Regarding B1, the “Average logFC” value was −1.442, the “M1-1 Log2 Median Normalized” value is −1.589, the “M1-2 Log2 Median Normalized” value is on record as −1.441 and the “M2-1 Log2 Median Normalized” value is listed as −1.0795. Further, the “M2-2 Log2 Median Normalized” value is listed as −1.499 and the change entry is reported as “down”.

B2: P50431 (protein, UniProt P50431 1-478, looked up)
chain: MADRDATLWASHEKMLSQPLKDSDAEVYSIIKKESNRQRVGLELIASENFASRAVLEALGSCLNNKYSEGYPGQRYYGGTEFIDELEMLCQKRALQAYHLDPQCWGVNVQPYSGSPANFAVYTALVEPHGRIMGLDLPDGGHLTHGFMTDKKKISATSIFFESMPYKVYPETGYINYDQLEENASLFHPKLIIAGTSCYSRNLDYARLRKIADDNGAYLMADMAHISGLVAAGVVPSPFEHCHVVTTTTHKTLRGCRAGMIFYRKGVRSVDPKTGKETYYELESLINSAVFPGLQGGPHNHAIAGVAVALKQAMTTEFKIYQLQVLANCRALSDALTELGYKIVTGGSDNHLILMDLRSKGTDGGRAEKVLEACSIACNKNTCPGDKSALRPSGLRLGTPALTSRGLLEEDFQKVAHFIHRGIELTLQIQSHMATKATLKEFKEKLAGDEKIQSAVATLREEVENFASNFSLPGLPDF
modifications: full-length
Consider B2, for which the “Average logFC” value is listed as −1.162, the “M1-1 Log2 Median Normalized” value is given as −1.382, the “M1-2 Log2 Median Normalized” value was −1 and the “M2-1 Log2 Median Normalized” value is recorded as −1.1875. For the same molecule, the “M2-2 Log2 Median Normalized” value is −1.08 and the change result was “down”.

B3: P51162 (protein, UniProt P51162 1-128, looked up)
chain: MAFSGKYEFESEKNYDEFMKRLGLPGDVIERGRNFKIITEVQQDGQDFTWSQSYSGGNIMSNKFTIGKECEMQTMGGKKFKATVKMEGGKVVAEFPNYHQTSEVVGDKLVEISTIGDVTYERVSKRLA
modifications: full-length
Regarding B3, the “Average logFC” value is −1.573, the “M1-1 Log2 Median Normalized” value was −0.519, the “M1-2 Log2 Median Normalized” value is −1.799 and the “M2-1 Log2 Median Normalized” value was −2.7635. Also, the “M2-2 Log2 Median Normalized” value is listed as −1.209 and the change entry is given as “down”.

B4: P50543 (protein, UniProt P50543 1-98, looked up)
chain: MPTETERCIESLIAVFQKYSGKDGNNTQLSKTEFLSFMNTELAAFTKNQKDPGVLDRMMKKLDLNCDGQLDFQEFLNLIGGLAIACHDSFIQTSQKRI
modifications: full-length
B4: the “Average logFC” value worked out at 1.372, the “M1-1 Log2 Median Normalized” value turned out to be 1.371, the “M1-2 Log2 Median Normalized” value is on record as 1.475 and the “M2-1 Log2 Median Normalized” value is on record as 1.4645. The “M2-2 Log2 Median Normalized” value was found to be 0.855 and the change entry is on record as “up”.

B5: P51432 (protein, UniProt P51432 1-1234, looked up)
chain: MAGARPGVHALQLEPPTVVETLRRGSKFIKWDEEASSRNLVTLRVDPNGFFLYWTGPNMEVDTLDISSIRDTRTGRYARLPKDPKIREVLGFGGPDTRLEEKLMTVVAGPDPVNTTFLNFMAVQDDTVKVWSEELFKLAMNILAQNASRNTFLRKAYTKLKLQVNQDGRIPVKNILKMFSADKKRVETALESCGLNFNRSESIRPDEFPLEIFERFLNKLCLRPDIDKILLEIGAKGKPYLTLEQLMDFINQKQRDPRLNEVLYPPLRSSQARLLIEKYETNKQFLERDQMSMEGFSRYLGGEENGILPLEALDLSMDMTQPLSAYFINSSHNTYLTAGQLAGPSSVEMYRQALLWGCRCVELDVWKGRPPEEEPFITHGFTMTTEVPLRDVLEAIAEAAFKTSPYPVILSFENHVDSAKQQAKMAEYCRSIFGDALLIDPLDKYPLSAGIPLPSPQDLMGRILVKNKKRHRPSTGVPDSSVRKRPLEQSNSALSESSAATEPSSPQLGSPSSDSCPGLSNGEEVGLEKTSLEPQKSLGEESLSREPNVPMPDRDREDEEEDEEEEETTDPKKPTTDEGTASSEVNATEEMSTLVNYVEPVKFKSFEAARKRNKCFEMSSFVETKAMEQLTKSPMEFVEYNKQQLSRIYPKGTRVDSSNYMPQLFWNVGCQLVALNFQTLDLPMQLNAGVFEYNGRSGYLLKPEFMRRPDKSFDPFTEVIVDGIVANALRVKVISGQFLSDKKVGIYVEVDMFGLPVDTRRKYRTRTSQGNSFNPVWDEEPFDFPKVVLPTLASLRIAAFEEGGKFVGHRILPVSAIRSGYHYVCLRNEANQPLCLPALLIYTEASDYIPDDHQDYAEALINPIKHVSLMDQRAKQLAALIGESEAQASTETYQETPCQQPGSQLPSNPTPNPLDASPRWPPGPTTSSTSSSLSSPGQRDDLIASILSEVTPTPLEELRSHKAMVKLRSRQDRDLRELHKKHQRKAVALTRRLLDGLAQARAEGKCRPSPSALGKATNSEDVKEEEEAKQYREFQNRQVQSLLELREAQADVETKRKLEHLRQAHQRLKEVVLDTHTTQFKRLKELNEREKKELQKILDRKRNNSISEAKTREKHKKEVELTEINRRHITESVNSIRRLEEAQKQRHERLVAGQQQVLQQLEEEEPKLLAQLTQECQEQRERLPQEIRRCLLGETAEGLGDGPLVACASNGHAPGSGGHLSSADSESQEENTQL
modifications: full-length
B5: the “Average logFC” value was −1.187, the “M1-1 Log2 Median Normalized” value is on record as −1.261, the “M1-2 Log2 Median Normalized” value is −1.255 and the “M2-1 Log2 Median Normalized” value was −1.1345. Besides, the “M2-2 Log2 Median Normalized” value was −1.096 and the change entry is on record as “down”.

B6: P55050 (protein, UniProt P55050 1-132, looked up)
chain: MAFDGTWKVDRNENYEKFMEKMGINVMKRKLGAHDNLKLTITQDGNKFTVKESSNFRNIDVVFELGVNFPYSLADGTELTGAWTIEGNKLIGKFTRVDNGKELIAVREVSGNELIQTYTYEGVEAKRFFKKE
modifications: full-length
As for B6, the “Average logFC” value is reported as −1.721, the “M1-1 Log2 Median Normalized” value is listed as −1.558, the “M1-2 Log2 Median Normalized” value is reported as −2.656 and the “M2-1 Log2 Median Normalized” value is −2.1955. Moreover, the “M2-2 Log2 Median Normalized” value is given as −0.474 and the change result was “down”.

B7: P48756 (protein, UniProt P48756 1-144, looked up)
chain: MVALKTCSLLLVLLFLAVGLGEKEEVEFRSHAKFAGPRPRGPRYAEGTFISDYSIAMDKIRQQDFVNWLLAQRGKKSDWKHNITQREARALVLAGQSQGKEDKEAQESSLPKSLSDDDVLRDLLIQELLAWMVDQTELCRLRSQ
modifications: full-length
For the molecule B7, the “Average logFC” value is listed as 1.212, the “M1-1 Log2 Median Normalized” value turned out to be 1.21, the “M1-2 Log2 Median Normalized” value is recorded as 0.504 and the “M2-1 Log2 Median Normalized” value came out at 1.2845. The “M2-2 Log2 Median Normalized” value is listed as 1.769 and the change result is on record as “up”.

B8: P52792 (protein, UniProt P52792 1-465, looked up)
chain: MLDDRARMEATKKEKVEQILAEFQLQEEDLKKVMSRMQKEMDRGLKLETHQEASVKMLPTYVRSTPEGSEVGDFLSLDLGGTNFRVMLVKVGEGEAGQWSVKTKHQMYSIPEDAMTGTAEMLFDYISECISDFLDKHQMKHKKLPLGFTFSFPVRHEDIDKGILLNWTKGFKASGAEGNNIVGLLRDAIKRRGDFEMDVVAMVNDTVATMISCYYEDRQCEVGMIVGTGCNACYMEEMQNVELVEGDEGRMCVNTEWGAFGNSGELDEFLLEYDRMVDESSVNPGQQLYEKIIGGKYMGELVRLVLLKLVEENLLFHGEASEQLRTRGAFETRFVSQVESDSGDRRQILNILSTLGLRPSVADCDIVRRACESVSTRAAHMCSAGLAGVINRMRESRSEDVMRITVGVDGSVYKLHPSFKERFHASVRRLTPNCEITFIESEEGSGRGAALVSAVACKKACMLGQ
modifications: full-length
In the case of B8, the “Average logFC” value is given as 1.166, the “M1-1 Log2 Median Normalized” value came out at 1.847, the “M1-2 Log2 Median Normalized” value turned out to be 0.711 and the “M2-1 Log2 Median Normalized” value is reported as 1.3025. In addition, the “M2-2 Log2 Median Normalized” value was 0.805 and the change entry is recorded as “up”.

B9: P48036 (protein, UniProt P48036 1-319, looked up)
chain: MATRGTVTDFPGFDGRADAEVLRKAMKGLGTDEDSILNLLTSRSNAQRQEIAQEFKTLFGRDLVDDLKSELTGKFEKLIVAMMKPSRLYDAYELKHALKGAGTDEKVLTEIIASRTPEELSAIKQVYEEEYGSNLEDDVVGDTSGYYQRMLVVLLQANRDPDTAIDDAQVELDAQALFQAGELKWGTDEEKFITIFGTRSVSHLRRVFDKYMTISGFQIEETIDRETSGNLEQLLLAVVKSIRSIPAYLAETLYYAMKGAGTDDHTLIRVVVSRSEIDLFNIRKEFRKNFATSLYSMIKGDTSGDYKKALLLLCGGEDD
modifications: full-length
With B9, the “Average logFC” value is 1.143, the “M1-1 Log2 Median Normalized” value was determined as 1.196, the “M1-2 Log2 Median Normalized” value came to 1.332 and the “M2-1 Log2 Median Normalized” value is recorded as 1.1055. Also, the “M2-2 Log2 Median Normalized” value is 0.94 and the change entry was “up”.

B10: P52800 (protein, UniProt P52800 1-336, looked up)
chain: MAMARSRRDSVWKYCWGLLMVLCRTAISRSIVLEPIYWNSSNSKFLPGQGLVLYPQIGDKLDIICPKVDSKTVGQYEYYKVYMVDKDQADRCTIKKENTPLLNCARPDQDVKFTIKFQEFSPNLWGLEFQKNKDYYIISTSNGSLEGLDNQEGGVCQTRAMKILMKVGQDASSAGSARNHGPTRRPELEAGTNGRSSTTSPFVKPNPGSSTDGNSAGHSGNNLLGSEVALFAGIASGCIIFIVIIITLVVLLLKYRRRHRKHSPQHTTTLSLSTLATPKRGGNNNGSEPSDVIIPLRTADSVFCPHYEKVSGDYGHPVYIVQEMPPQSPANIYYKV
modifications: full-length
In the case of B10, the “Average logFC” value is −1.24, the “M1-1 Log2 Median Normalized” value is reported as −0.883, the “M1-2 Log2 Median Normalized” value is given as −1.258 and the “M2-1 Log2 Median Normalized” value is listed as −1.7545. Also, the “M2-2 Log2 Median Normalized” value was −1.065 and the change result is recorded as “down”.
